Measurements as given in paper PMC3332083 (Biochemistry, 2012).

B1: Serum amyloid A isoform SAA2.2 from the CE/J mouse strain, full-length (103 amino acids) (natural protein, mouse (CE/J strain), UniProt P05367 20-122, looked up)
chain: GFFSFVHEAFLGAGDMWRAYTDMKEAGWKDGDKYFHARGNYDAAQRGPGGVWAAEKISDGREAFQEFFGRGHEDTMADQEANRHGRSGKDPNYYRPPGLPDKY
B2: Carboxy-terminal truncated SAA2.2 (SAA2.2ΔC), truncated after the ninetieth amino acid residue (domain or fragment, mouse (CE/J strain), UniProt P05367 20-109, looked up)
chain: GFFSFVHEAFLGAGDMWRAYTDMKEAGWKDGDKYFHARGNYDAAQRGPGGVWAAEKISDGREAFQEFFGRGHEDTMADQEANRHGRSGKD

Key:
[1] = biological target: the molecule itself; assay: SEC
[2] = biological target: the molecule itself; assay: dynamic light scattering

Row | Protein | stoichiometry N [1] [subunits] | stoichiometry N [2] [subunits]
1 | B1 | 8 | –
2 | B2 | – | 70 to 170
